± gives the uncertainty stated by the source.
Test: self-splicing fitness, log relative to wild type (ln ratio); higher = more splicing; Tetrahymena group I intron in knt gene, E. coli kanamycin selection, DiMSum; sequences stand for … in CUCUCU…GGAGGGAAAAGUUAUCAGGCAUGCACCUGGUAGCUAGUCUUUAAACCAAUAGAUUGCAUCGGUUUAAAAGGCAAGACCGUCAAAUUGCGGGAAAGGGGUCAACAGCCGUUCAGUACCAAGUCUCAGGGGAAACUUUGAGAUGGCCUUGCAAAGGGUAUGGUAAUAAGCUGACGGACAUGGUCCUAACCACGCAGCCAAGUCCUAAGUCAACAGAUCUUCUGUUGAUAUGGAUGCAGUUCACAGACUAAAUGUCGGUCGGGGAAGAUGUAUUCUUCUCAUAAGAUAUAGUCGGACCUCUCCUUAAUGGGAGCUAGCGGAUGAAGUGAUGCAACACUGGAGCCGCUGGGAACUAAUUUGUAUGCGAAAGUAUAUUGAUUAGUUUUGGAGUACUCGUGGUCG
Outline: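 Library with all eight P1ex-region intron nucleotides randomised, intron inside the knt kanamycin-resistance gene on pET-22b(+), in E. coli BL21(DE3). Cells grew overnight at 37°C or 30°C on LB agar with or without 25 μg/mL kanamycin (plus 100 μg/mL carbenicillin, 50 μM IPTG, 0.2% rhamnose), in six replicate transformations. Pooled colonies were amplicon-sequenced on Illumina HiSeq 2500. DiMSum fitness is the error-weighted combination of wild-type-normalised replicate fold changes, kanamycin versus none.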

Sequence | self-splicing fitness (ln) (30 °C) | self-splicing fitness (ln) (37 °C)
UCAUAGCAAUAUUACGUUGU | -4.35 ± 0.23 | -2.77 ± 0.21
UCCAAGCAAUAUUACGAAAU | -2.02 ± 0.2 | -1.98 ± 0.21
UCCAAGCAAUAUUACGAAUA | -2.4 ± 0.16 | -1.13 ± 0.097
UCCAAGCAAUAUUACGAAUC |  | -1.28 ± 0.19
UCCAAGCAAUAUUACGAAUU | -3.42 ± 0.14 | -2.5 ± 0.16
UCCAAGCAAUAUUACGACCG |  | -1.38 ± 0.41
UCCAAGCAAUAUUACGAGCU | -3.58 ± 0.16 | -3 ± 0.25
UCCAAGCAAUAUUACGAGGU | -3.4 ± 0.14 | -1.8 ± 0.11
UCCAAGCAAUAUUACGAUAU | -3.24 ± 0.19 | -2.57 ± 0.16
UCCAAGCAAUAUUACGAUGG | -1.01 ± 0.059 | 0.16 ± 0.083
UCCAAGCAAUAUUACGCCAU | -4.34 ± 0.28 | -3.21 ± 0.27
UCCAAGCAAUAUUACGCCCU | -2.49 ± 0.24 | -1.32 ± 0.26
UCCAAGCAAUAUUACGCCGC | -2.64 ± 0.32 | 
UCCAAGCAAUAUUACGCUAC | -3.8 ± 0.27 | -2.48 ± 0.24
UCCAAGCAAUAUUACGGACC | -2.63 ± 0.36 | -0.119 ± 0.18
UCCAAGCAAUAUUACGGAGC | -3.35 ± 0.37 | -2.44 ± 0.26
UCCAAGCAAUAUUACGGAGU | -2.17 ± 0.12 | -1.44 ± 0.13
UCCAAGCAAUAUUACGGAUG | -3.77 ± 0.13 | -3.2 ± 0.25
UCCAAGCAAUAUUACGGGCG | -1.05 ± 0.073 | -0.839 ± 0.085
UCCAAGCAAUAUUACGGGGG | -3.91 ± 0.2 | -3.41 ± 0.24
UCCAAGCAAUAUUACGGGUU | -3.89 ± 0.14 | -1.75 ± 0.097
UCCAAGCAAUAUUACGUCAG | -3.02 ± 0.15 | -1.69 ± 0.13
UCCAAGCAAUAUUACGUCCU | -4.09 ± 0.31 | -2.95 ± 0.43
UCCAAGCAAUAUUACGUCGC | -3.47 ± 0.21 | -3.12 ± 0.28
UCCCAGCAAUAUUACGAAUU | -3.04 ± 0.19 | -2.27 ± 0.17

Sequence | self-splicing fitness (ln) (30 °C) | self-splicing fitness (ln) (37 °C)
UCCCAGCAAUAUUACGACAA | -2.16 ± 0.15 | -1.37 ± 0.14
UCCCAGCAAUAUUACGAGCA | -0.711 ± 0.1 | 0.0665 ± 0.13
UCCCAGCAAUAUUACGAGGA | -2.18 ± 0.11 | -1.36 ± 0.12
UCCCAGCAAUAUUACGAUCU | -3.77 ± 0.23 | -1.95 ± 0.24
UCCCAGCAAUAUUACGCACG | -3.4 ± 0.17 | -2.6 ± 0.23
UCCCAGCAAUAUUACGCGUA | -0.178 ± 0.066 | 0.0254 ± 0.079
UCCCAGCAAUAUUACGGACA | -1.63 ± 0.092 | -0.126 ± 0.081
UCCCAGCAAUAUUACGGGAU | -3.59 ± 0.14 | -3.46 ± 0.21
UCCCAGCAAUAUUACGGGUA | -0.837 ± 0.065 | -0.432 ± 0.071
UCCCAGCAAUAUUACGGGUC | -3.67 ± 0.16 | -3.35 ± 0.22
UCCCAGCAAUAUUACGGUCG | -1.76 ± 0.071 | -0.748 ± 0.078
UCCCAGCAAUAUUACGGUGC | -2.41 ± 0.13 | -1.51 ± 0.13
UCCCAGCAAUAUUACGUAGG | -4.06 ± 0.17 | -1.08 ± 0.11
UCCCAGCAAUAUUACGUCAC | -4.1 ± 0.33 | -3.23 ± 0.33
UCCCAGCAAUAUUACGUCCU | -3.36 ± 0.18 | -1.48 ± 0.15
UCCCAGCAAUAUUACGUCGA | -0.251 ± 0.071 | 0.317 ± 0.099
UCCCAGCAAUAUUACGUCGC | -3.47 ± 0.27 | -2.4 ± 0.22
UCCCAGCAAUAUUACGUUUU | -3.06 ± 0.11 | -1.81 ± 0.15
UCCGAGCAAUAUUACGAACG | -1.82 ± 0.37 | -1.06 ± 0.22
UCCGAGCAAUAUUACGAAGC |  | -1.15 ± 0.36
UCCGAGCAAUAUUACGAAGU |  | -1.4 ± 0.29
UCCGAGCAAUAUUACGACGA | -0.666 ± 0.086 | 0.401 ± 0.11
UCCGAGCAAUAUUACGAGCA | -1.02 ± 0.1 | -0.767 ± 0.097
UCCGAGCAAUAUUACGAGCG | -3.16 ± 0.18 | -2.47 ± 0.24
